Source: the Human Domainome abundance scans (Beltran et al. 2025)
± gives the uncertainty stated by the source.

B1: DNA topoisomerase 3-alpha, residues 812 to 851; numbered along this chain, Q13472 (parent)
chain: TCNCGQEAVLLTVRKEGPNRGRQFFKCNGGSCNFFLWADS

Variants of: B1
Assay: abundance fitness (aPCA) (normalised: wild type 0, dead -1); higher = more abundant; growth selection in yeast, the domain comes from the species named
Details: Homo sapiens

Row | Variant | abundance fitness
1 | TCNCGQEAVLLTVRKEGPWRGRQFFKCNGGSCNFFLWADS [N19W] | -0.454 ± 0.13
2 | TCNCGQEAVLLTVRKEGPTRGRQFFKCNGGSCNFFLWADS [N19T] | -0.075 ± 0.071
3 | TCNCGQEAVLLTVRKEGPDRGRQFFKCNGGSCNFFLWADS [N19D] | 0.069 ± 0.046
4 | TCNCGQEAVLLTVRKEGPVRGRQFFKCNGGSCNFFLWADS [N19V] | -0.54 ± 0.1
5 | TCNCGQEAVLLTVRKEGPHRGRQFFKCNGGSCNFFLWADS [N19H] | 0.157 ± 0.1
6 | TCNCGQEAVLLTVRKEGPERGRQFFKCNGGSCNFFLWADS [N19E] | -0.222 ± 0.19
7 | TCNCGQEAVLLTVRKEGPRRGRQFFKCNGGSCNFFLWADS [N19R] | -0.777 ± 0.49
8 | TCNCGQEAVLLTVRKEGPARGRQFFKCNGGSCNFFLWADS [N19A] | -0.509 ± 0.097
9 | TCNCGQEAVLLTVRKEGPNRGKQFFKCNGGSCNFFLWADS [R22K] | 0.007 ± 0.095
10 | TCNCGQEAVLLTVRKEGPNRGSQFFKCNGGSCNFFLWADS [R22S] | -0.513 ± 0.086
11 | TCNCGQEAVLLTVRKEGPNRGTQFFKCNGGSCNFFLWADS [R22T] | -0.438 ± 0.17
12 | TCNCGQEAVLLTVRKEGPNRGAQFFKCNGGSCNFFLWADS [R22A] | -0.401 ± 0.13
13 | TCNCGQEAVLLTVRKEGPNRGGQFFKCNGGSCNFFLWADS [R22G] | -0.565 ± 0.081
14 | TCNCGQEAVLLTVRKEGPNRGQQFFKCNGGSCNFFLWADS [R22Q] | -0.623 ± 0.13
15 | TCNCGQEAVLLTVRKEGPNRGLQFFKCNGGSCNFFLWADS [R22L] | -0.322 ± 0.079
16 | TCNCGQEAVLLTVRKEGPNRGMQFFKCNGGSCNFFLWADS [R22M] | -0.677 ± 0.2
17 | TCNCGQEAVLLTVRKEGPNRGWQFFKCNGGSCNFFLWADS [R22W] | -0.629 ± 0.077
18 | TCNCGQEAVLLTVRKEGPNRGNQFFKCNGGSCNFFLWADS [R22N] | -0.459 ± 0.36
19 | TCNCGQEAVLLTVRKEAPNRGRQFFKCNGGSCNFFLWADS [G17A] | -0.676 ± 0.17
20 | TCNCGQEAVLLTVRKEVPNRGRQFFKCNGGSCNFFLWADS [G17V] | -0.675 ± 0.14
21 | TCNCGQEAVLLTVRKELPNRGRQFFKCNGGSCNFFLWADS [G17L] | -0.606 ± 0.071

Row | Variant | abundance fitness
22 | TCNCGQEAVLLTVRKEQPNRGRQFFKCNGGSCNFFLWADS [G17Q] | -0.681 ± 0.11
23 | TCNCGQEAVLLTVRKEWPNRGRQFFKCNGGSCNFFLWADS [G17W] | -0.684 ± 0.26
24 | TCNCGQEAVLLTVRKEIPNRGRQFFKCNGGSCNFFLWADS [G17I] | -0.263 ± 0.16
25 | TCNCGQEAVLLTVRKERPNRGRQFFKCNGGSCNFFLWADS [G17R] | -0.665 ± 0.14
26 | TCNCGQEAVLLTVRKEPPNRGRQFFKCNGGSCNFFLWADS [G17P] | -0.89 ± 0.46
27 | TCNCGQEAVLLTVRKEGLNRGRQFFKCNGGSCNFFLWADS [P18L] | -0.352 ± 0.21
28 | TCNCGQEAVLLTVRKEGANRGRQFFKCNGGSCNFFLWADS [P18A] | -0.058 ± 0.072
29 | TCNCGQEAVLLTVRKEGMNRGRQFFKCNGGSCNFFLWADS [P18M] | -0.336 ± 0.072
30 | TCNCGQEAVLLTVRKEGCNRGRQFFKCNGGSCNFFLWADS [P18C] | -0.482 ± 0.18
31 | TCNCGQEAVLLTVRKEGVNRGRQFFKCNGGSCNFFLWADS [P18V] | -0.149 ± 0.067
32 | TCNCGQEAVLLTVRKEGRNRGRQFFKCNGGSCNFFLWADS [P18R] | -0.252 ± 0.11
33 | TCNCGQEAVLLTVRKEGWNRGRQFFKCNGGSCNFFLWADS [P18W] | -0.716 ± 0.14
34 | TCNCGQEAVLLTVRKEGHNRGRQFFKCNGGSCNFFLWADS [P18H] | -0.353 ± 0.12
35 | TCNCGQEAVLLTVRKEGPNRGRQFFKMNGGSCNFFLWADS [C27M] | -0.789 ± 0.25
36 | TCNCGQEAVLLTVRKEGPNRGRQFFKANGGSCNFFLWADS [C27A] | -0.44 ± 0.15
37 | TCNCGQEAVLLTVRKEGPNRGRQFFKLNGGSCNFFLWADS [C27L] | -0.984 ± 0.19
38 | TCNCGQEAVLLTVRKEGPNRGRQFFKRNGGSCNFFLWADS [C27R] | -1 ± 0.36
39 | TCNCGQEAVLLTVRKEGPNRGRQFFKTNGGSCNFFLWADS [C27T] | -0.86 ± 0.25
40 | TCNCGQEAVLLTVRKEGPNRGRQFFKVNGGSCNFFLWADS [C27V] | -1.09 ± 0.25
41 | TCNCGQEAVLLTVRKEGPNRGRQFFKHNGGSCNFFLWADS [C27H] | -0.753 ± 0.35
42 | TCNCGQEAVLLTVRKEGPNRGRQFFKENGGSCNFFLWADS [C27E] | -0.53 ± 0.38

Row | Variant | abundance fitness
43 | TCNCGQEAVLLTVRKEGPNRGRQFFKGNGGSCNFFLWADS [C27G] | -1.19 ± 0.41
44 | TCNCGQEAVLLTVRKKGPNRGRQFFKCNGGSCNFFLWADS [E16K] | -0.071 ± 0.1
45 | TCNCGQEAVLLTVRKSGPNRGRQFFKCNGGSCNFFLWADS [E16S] | -0.344 ± 0.33
46 | TCNCGQEAVLLTVRKPGPNRGRQFFKCNGGSCNFFLWADS [E16P] | -0.196 ± 0.15
47 | TCNCGQEAVLLTVRKLGPNRGRQFFKCNGGSCNFFLWADS [E16L] | -0.246 ± 0.058
48 | TCNCGQEAVLLTVRKGGPNRGRQFFKCNGGSCNFFLWADS [E16G] | -0.266 ± 0.069
49 | TCNCGQEAVLLTVRKRGPNRGRQFFKCNGGSCNFFLWADS [E16R] | -0.165 ± 0.079
50 | TCNCGQEAVLLTVRKTGPNRGRQFFKCNGGSCNFFLWADS [E16T] | -0.13 ± 0.087
51 | TCNCGQEAVLLTVRKCGPNRGRQFFKCNGGSCNFFLWADS [E16C] | -0.342 ± 0.087
52 | TCNCGQEAVLLTVRKVGPNRGRQFFKCNGGSCNFFLWADS [E16V] | -0.5 ± 0.34
53 | TCNCGQEAVLLTVRKAGPNRGRQFFKCNGGSCNFFLWADS [E16A] | -0.185 ± 0.063
54 | TCNCGQEAVLLTVRKYGPNRGRQFFKCNGGSCNFFLWADS [E16Y] | -0.421 ± 0.17
55 | TCNCGQEAVLLTVRKNGPNRGRQFFKCNGGSCNFFLWADS [E16N] | -0.018 ± 0.054
56 | TCNCGQEAVLLTVRKEGPNRGRQFFKCLGGSCNFFLWADS [N28L] | -0.195 ± 0.18
57 | TCNCGQEAVLLTVRKEGPNRGRQFFKCSGGSCNFFLWADS [N28S] | -0.09 ± 0.047
58 | TCNCGQEAVLLTVRKEGPNRGRQFFKCTGGSCNFFLWADS [N28T] | -0.043 ± 0.13
59 | TCNCGQEAVLLTVRKEGPNRGRQFFKCAGGSCNFFLWADS [N28A] | 0.075 ± 0.069
60 | TCNCGQEAVLLTVRKEGPNRGRQFFKCIGGSCNFFLWADS [N28I] | 0.137 ± 0.3
61 | TCNCGQEAVLLTVRKEGPNRGRQFFKCVGGSCNFFLWADS [N28V] | -0.136 ± 0.078
62 | TCNCGQEAVLLTVRKEGPNRGRQFFKCRGGSCNFFLWADS [N28R] | 0.131 ± 0.12
63 | TCNCGQEAVLLTVRKEGPNRGRQFFKCWGGSCNFFLWADS [N28W] | 0.079 ± 0.2
